# Laboratory results as given in IntAct's records for PubMed 25068414.
# B1: Rac GTPase-activating protein 1 (Homo sapiens), Q9H0H5 (parent)
# chain: MDTMMLNVRNLFEQLVRRVEILSEGNEVQFIQLAKDFEDFRKKWQRTDHELGKYKDLLMKAETERSALDVKLKHARNQVDVEIKRRQRAEADCEKLERQIQLIREMLMCDTSGSIQLSEEQKSALAFLNRGQPSSSNAGNKRLSTIDESGSILSDISFDKTDESLDWDSSLVKTFKLKKREKRRSTSRQFVDGPPGPVKKTRSIGSAVDQGNESIVAKTTVTVPNDGGPIEAVSTIETVPYWTRSRRKTGTLQPWNSDSTLNSRQLEPRTETDSVGTPQSNGGMRLHDFVSKTVIKPESCVPCGKRIKFGKLSLKCRDCRVVSHPECRDRCPLPCIPTLIGTPVKIGEGMLADFVSQTSPMIPSIVVHCVNEIEQRGLTETGLYRISGCDRTVKELKEKFLRVKTVPLLSKVDDIHAICSLLKDFLRNLKEPLLTFRLNRAFMEAAEITDEDNSIAAMYQAVGELPQANRDTLAFLMIHLQRVAQSPHTKMDVANLAKVFGPTIVAHAVPNPDPVTMLQDIKRQPKVVERLLSLPLEYWSQFMMVEQENIDPLHVIENSNAFSTPQTPDIKVSLLGPVTTPEHQLLKTPSSSSLSQRVRSTLTKNTPRFGSKSKSATNLGRQGNFFASPMLK
# partner: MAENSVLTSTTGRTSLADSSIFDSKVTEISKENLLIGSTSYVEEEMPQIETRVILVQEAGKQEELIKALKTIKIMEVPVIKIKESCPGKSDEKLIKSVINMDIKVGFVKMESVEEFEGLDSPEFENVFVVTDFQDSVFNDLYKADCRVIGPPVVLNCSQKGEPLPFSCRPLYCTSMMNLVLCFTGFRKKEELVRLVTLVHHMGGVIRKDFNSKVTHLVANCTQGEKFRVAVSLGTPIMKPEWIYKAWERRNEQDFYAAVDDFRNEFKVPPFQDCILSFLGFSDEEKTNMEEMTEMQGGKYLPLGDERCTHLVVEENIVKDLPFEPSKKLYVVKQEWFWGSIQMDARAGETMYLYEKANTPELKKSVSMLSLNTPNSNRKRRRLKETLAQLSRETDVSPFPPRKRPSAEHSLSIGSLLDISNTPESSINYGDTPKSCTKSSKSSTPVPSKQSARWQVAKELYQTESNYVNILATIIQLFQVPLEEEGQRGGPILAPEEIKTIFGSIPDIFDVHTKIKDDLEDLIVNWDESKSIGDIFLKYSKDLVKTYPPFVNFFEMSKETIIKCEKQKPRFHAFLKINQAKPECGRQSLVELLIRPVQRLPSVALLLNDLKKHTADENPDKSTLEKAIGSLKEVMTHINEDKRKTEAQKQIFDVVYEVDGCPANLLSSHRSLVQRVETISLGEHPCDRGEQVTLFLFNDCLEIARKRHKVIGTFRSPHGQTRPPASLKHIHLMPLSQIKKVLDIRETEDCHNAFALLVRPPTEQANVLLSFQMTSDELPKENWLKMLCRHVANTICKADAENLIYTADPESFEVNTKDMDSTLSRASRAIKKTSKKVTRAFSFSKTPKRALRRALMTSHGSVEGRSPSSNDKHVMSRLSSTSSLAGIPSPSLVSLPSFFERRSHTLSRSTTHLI
# B2: Protein ECT2 (Homo sapiens), Q9H8V3 (parent)
# chain: B1 partner
# partner: B1 chain
# Variants of: B1
# Settings: with ect2_human ECT2, Q9H8V3
row,Variant,effect of a mutation on the interaction
1,W167A,decreasing interaction

# Variants of: B2
# Settings: with rgap1_human RACGAP1, Q9H0H5
row,Variant,effect of a mutation on the interaction
1,P163E,decreasing interaction

# Variants of: B2
# Settings: with rgap1_human RACGAP1, Q9H0H5
# Remark: another data set of the same source
row,Variant,effect of a mutation on the interaction
1,V153A;L195M,disrupting interaction

# Variants of: B2
# Settings: with rgap1_human RACGAP1, Q9H0H5
# Remark: another data set of the same source
row,Variant,effect of a mutation on the interaction
1,L195M,disrupting interaction

# Variants of: B2
# Settings: with rgap1_human RACGAP1, Q9H0H5
# Remark: another data set of the same source
row,Variant,effect of a mutation on the interaction
1,V153A,decreasing interaction
